In article PMC10843481 (Structure (London, England : 1993), 2023):

Legend:
[1] = molecular target: 1TEL-GG-UBA as run in size exclusion chromatography with ubiquitin (human) (UniProt P41212); experiment: SEC
[2] = molecular target: the molecule itself; experiment: crystal structure

| percent binding [1] | Molecule | binding result [2] |
| --- | --- | --- |
| 100% | M1-linked-di-ubiquitin (from UniProt P0CG47 1-76; P0CG47 1-76) (natural protein) | – |
| 100% | M1-linked-tetra-ubiquitin (from UniProt P0CG47 1-76; P0CG47 1-76; P0CG47 1-76; P0CG47 1-76) (natural protein) | – |
| 100% | M1-linked-tri-ubiquitin (from UniProt P0CG47 1-76; P0CG47 1-76; P0CG47 1-76) (natural protein) | – |
| – | 1TEL-GSGG-UBA (other, human) IRLPAHLRLQPIYWSRDDVAQWLKWAENEFSLSPIDSNTFEMNGKALLLLTKEDFRYRSPHSGDELYELLQHILGSGGELQRKIMEVELSVHGVTHQEAQTALGATGGDVVSAIRNLKVDQLFHLSSRSRADAWRILEHYQWDLSAASRYVLARP | binds |
| – | 1TEL-GG-UBA (other, human) IRLPAHLRLQPIYWSRDDVAQWLKWAENEFSLSPIDSNTFEMNGKALLLLTKEDFRYRSPHSGDELYELLQHILGGELQRKIMEVELSVHGVTHQEAQTALGATGGDVVSAIRNLKVDQLFHLSSRSRADAWRILEHYQWDLSAASRYVLARP | binds |
